According to the DeepSol protein solubility set:

Test: soluble on expression in E. coli; label from the status in PepcDB or PDB records

| Sequence | soluble on expression in E. coli |
| --- | --- |
| MNSCWAKGKLMCEGRPASGVKVKLMESDNSFLPGFLDRDDKMASGKADSNGEFNLSGSTKEITGIEPYLAVFHDCKDGITPCQRVLRINIPKSYANWGSSAEKTFNAGNLELAGKFPGETRSCFN | not soluble |
| MNSITVRNATFTWARSDPPTLNGITFSIPEGALVAVVGQVGCGKSSLLSALLAEMDKVEGHVAIKGSVAYVPQQAWIQNDSLRENILFGCQLEEPYYRSVIQACALLPDLEILPSGDRTEIGEKGVNLSGGQKQRVSLARAVYSNADIYLFDDPLSAVDAHVGKHIFENVIGPKGMLKNKTRILVTHSMSYLPQVDVIIVMSGGKISEMGSYQELLARDGAFAEFLRTYASHHHHHH | soluble |
| MNSPDIALIKTYLLTLQDNICAALAQADGHAEFTEECWVREEGGGGRSRVLVNGAVFEQAGVNFSHVSGAMLPASATAHRPELAGRSFQALGVSLVIHPLNPYLPTSHANVRFFIAEKPGEDAVWWFGGGFDLTPYYGFEEDAIHWHQVAHSLCQPFGEQIYPRYKKWCDDYFYIKHRQEARGIGGLFFDDLNSPDFMTCFNFTQAVGDGFLAAYMPIVARRKALGWGDRERQFQLYRRGRYVEFNLVWDRGTLFGLQTGGRTESILMSLPPLVRWEYNYQPEADSAEAALYRDFLPVKDWLAIKGETH | not soluble |
| MNSPGVSANFFIPLSFDATSLIKYKLSDDLLARVAASGSLRSSSCRSAVWRLVLRCLPYETSDWEISLSRSRNLYRAHKENHLIDPHDTKFSQDPEFNNPLASIEQNPWNTFFEDNDLRDIIGKDVSRTFPEIEFFQNTSIRQMMSDILLVYAKEHPFVNYRQGMHEILAPLIFVIYSDNEAFQHAKENDELKMLTVEEEDILNCLFCKEYLEQDSYNLFCSVMLEVSRWYEEPTVTESPKRPIPKEPYMRVQDSAPASRLMEDLIDIGNLLHEIDPTLAKHLSTLDIPPQLYGIRWLRLLFGRELPLHDLLFLWDVLLIDRPIAPLAKCMFVSLLVQIRHLLLSSDYGGCLQYLMRYPPIADIDSFVKLARHYRNPKKNAKPMIKSNNFSHITVAGSSHPNRTQRPQRPPAAVNSKNDGAESPSTILALAPVFQKVKNTIRDRSNTVSGPSSPRRSNEPLREPLRTPQKKDNWANEVQMMEEQVSTLQTRLNEQDMMCCQVSKALEIYAEDVRNAKSSELCAVLSQNLLELSKTLMSIKTVPVGTSPPKHSRNGISDIQPKPRDSQPIRQHNEMVDMATKRPPL | not soluble |
| MNSQTTKDIPCFRSYLPDALRLRFEDKLTIRAIAQRLGLSHSTIHTLFQRFLASGIAWPLPDSVSFAQLDAILYANRKKELTEPQIREGSWRKERRTSYSREFKVRLAKQALQPGAVVARIAREHDINDNLLFKWKSQYEDGLLSDDDIQECMPVPVALTDTPEPTRPVTNPFWRNKHDERPEGAPGNVPRCELHLKSGVVKLFDPLTPELLRALIREMKGGIRLEHHHHHH | soluble |
| MNSRGLILTLGVVIAVAFAQQDSEVEREMMKRKSAYMRFGRSDGGNPMEMEKRKSAYMRFGKRSSGGDEQELVGGDDIDMEKRKSAYMRFGKRSGPQEDDMPMEKRKSAYMRFGKRSSDMEVIGNEGVDGDAHDLFKRKSAYMRFGKRSMGEEEDHDMMKRKSAYMRFGR | not soluble |
| MNSRQQTILQMVIDQGQVSVTDLAKATGVSEVTIRQDLNTLEKLSYLRRAHGFAVSLDSDDVETRMMSNYTLKRELAEFAASLVQPGETIFIENGSSNALLARTLGEQKKNVTIITVSSYIAHLLKDAPCEVILLGGVYQKKSESMVGPLTRQCIQQVHFSKAFIGIDGWQPETGFTGRDMMRTDVVNAVLEKECEAIVLTDSSKFGAVHSYSIGPVERFNRVITDSKIRASDLMHLEHSKLTIHVVDILEHHHHHH | soluble |
| MNSSKAGGCHGINDIKVKTAKPKDKPYKLADGGGMYLLINTNGSKYWRMKYRFAGKEKMLSIGVYPDVTLADAREKRSEARKLLAAGGDPGEAKKEEKIAQQMSLKNTFEAIAREWHQLKADRWSLRYRDEIIDTFEKDIFPYIGKRPIAEIKPMKLLEALRKMEKRGALEKMRKVRQRCGEVFRYAIVTGRADYNPAPDLASALATPKKVHFPFLTANELPHFLNDLAGYTGSIITKTATQIIMLTGVRTQELRFARWEDIDFETKLWEIPAEVMKMKRPHIVPLSEQVIMLFKQLEPISKHHPLVFIGRNDPRKPISKESINQVIELLGYKGRLTGHGFRHTMSTILHEQGFNSAWIEMQLAHVDKNSIRGTYNHALYLDGRREMMQWYADYIDSLSSRES | not soluble |
